Test results as given in patent US9784749.

What was measured:
[1] = target: r244 rabbit anti-human TnTuORF antiserum; test: competitive radioimmunoassay, TnTuORF standard against 125I-TnTuORF(Tyr) tracer for r244
[2] = target: r244 rabbit anti-human TnTuORF antiserum; test: competitive radioimmunoassay with r244 and 125I-TnTuORF(Tyr) tracer

Q: MAPEGWVIVVIS [Synthetic human Troponin T upstream open reading frame (TnTuORF) peptide] was tested. Which ED50 [1] did it give?
A: 0.458 µg/mL

Q: And the Cross reactivity with TnTuORF antiserum (%) [2]?
A: 100%
